4 molecules from US20220041738A1 (SAITAMA MEDICAL UNIVERSITY, published 2022) can be followed below.

Substitutions are numbered along the chain they refer to.

T1: Mouse ALK2-His&Fc (Sino Biological Inc., Cat. #50297-M03H) (mouse, UniProt P37172 21-123)
T1 construct: Bought product; also called mALK2-Fc; not shown: His tag and Fc of the bought product
T1 sequence: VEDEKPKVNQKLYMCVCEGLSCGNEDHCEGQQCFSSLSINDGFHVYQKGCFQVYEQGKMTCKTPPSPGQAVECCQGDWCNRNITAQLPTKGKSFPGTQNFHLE

T2: mouse ALK2(WT)-EGFP on HEK293A cells (mouse, UniProt P37172 21-509)
T2 construct: Expressed from pcDEF3/mouse ALK2(WT)-EGFP; also called mALK2(WT)-EGFP; wild-type mouse ALK2; not shown: EGFP fused to ALK2
T2 sequence: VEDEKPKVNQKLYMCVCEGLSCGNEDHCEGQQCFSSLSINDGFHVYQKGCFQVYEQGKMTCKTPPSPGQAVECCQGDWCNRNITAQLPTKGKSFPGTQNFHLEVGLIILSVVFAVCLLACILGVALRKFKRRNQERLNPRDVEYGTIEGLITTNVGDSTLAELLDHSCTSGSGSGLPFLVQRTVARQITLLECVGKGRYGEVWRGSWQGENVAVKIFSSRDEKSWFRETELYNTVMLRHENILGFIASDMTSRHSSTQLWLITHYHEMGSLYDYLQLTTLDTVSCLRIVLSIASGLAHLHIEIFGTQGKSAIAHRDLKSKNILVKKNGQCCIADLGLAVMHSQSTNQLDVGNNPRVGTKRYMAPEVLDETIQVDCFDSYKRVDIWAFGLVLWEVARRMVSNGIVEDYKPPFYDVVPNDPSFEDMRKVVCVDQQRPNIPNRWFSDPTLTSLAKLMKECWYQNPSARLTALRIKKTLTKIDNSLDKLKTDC

T3: human ALK2(WT)-EGFP on cells (human, UniProt Q04771 21-509)
T3 construct: also called hALK2(WT)-EGFP; human ALK2-EGFP; not shown: EGFP fused to ALK2
T3 sequence: T2 sequence with V1M, Q10P, I121L, E162D, S310P

B1: rat anti-ALK2 monoclonal antibody A2-11E (antibody, V domains shown)
VH: EVQLVETGGGLVQPGRSLKLSCVASGFTFSNYYMYWIRQAPGKGLEWISSINTDGGSTYYPDSVKGRFAISRDNAENTVYLQMNSLRSEDTATYYCAKSTPNIPLAYWGQGTLVTVSS
VL: DIQMTQSPSLLSASVGDRVTLSCKASQNIYKYLNWFQQKLGEAPKLLIYYSNSLQTGIPSRFSGSGSGTDFTLTISSLQPEDVAIYFCFQYSSGPTFGPGTKLELKR
notes: Rat monoclonal IgG from a hybridoma; also called 11E2
B2: rat anti-ALK2 monoclonal antibody A2-27D (antibody, V domains shown)
VH: EVQLVESGGGLVQPGRSLKLSCLASGSTFSNYGMKWIRQAPGKGLEWVASISRSSTYIYYADTVKGRFTISRDNARNTLYLQMTSLRSEDTALYYCAAAISTPFYWYFDFWGPGTVVTVSS
VL: EIVLTQSPTTMAASPGEKVTLNCLASSSVSYMTWYQQKSGASPKLWIYGTSNLASGVPNRFSGSGSGTSYSLAISSMEAEDVATYYCLHLTSYPPYTFGAGTKLELKR
notes: Rat monoclonal IgG from a hybridoma; also called 27D11
B3: rat anti-ALK2 monoclonal antibody A2-15A (antibody, V domains shown)
VH: EVQLVESGGGLVQPGRSLKLSCAASGFTFSHYYMAWVRQAPTKGLEWVASITNSGGSINYRDSVKGRFTISRDNAKSTLYLQMDSLRSEDTATYYCTREGGENYGGYPPFAYWGQGTLVTVSS
VL: DIVLTQSPALAVSLGQRATISCRANQGVSLSRYNLMHWYQQKPGQKPKLLIYRSSNLASGIPARFSGSGSGTDFTLTINPVQADDIATYYCQQSRESPFTFGAGTKLELKR
notes: Rat monoclonal IgG from a hybridoma; also called 15A6
B4: rat anti-ALK2 monoclonal antibody A2-25C (antibody, V domains shown)
VH: EVQLVESGGGLVQPGGSLKLSCAASGFTFSYYAMSWVCQAPTKGLEWVASISRGGDNTYYRDTVKGRFTTSRDNAKNTLYLQMDSLRSEDTATYYCARLNYNNYFDYWGQGVMVTVSS
VL: DIQMTQSPASLSASLEEIVTITCQASQDIGNWLSWYQQKPGKSPQLLIYGATSLADGVPSRFSGSRSGTQYSLKISRLRVEDIGIYYCLQAYSAPFTFGSGTKLEIKR
notes: Rat monoclonal IgG from a hybridoma; also called 25C11

For one experiment, the target named is T1, Mouse ALK2-His&Fc (Sino Biological …). In words: ELISA, antigen coated at 1 µg/ml, hybridoma culture supernatant, ALP anti-rat IgG, O.D.492. As to the method:
One week after the cell fusion, using each culture supernatant, clones recognizing mouse ALK2-His&Fc used as the antigen were selected by the enzyme-linked immunosorbent assay (ELISA), and clones recognizing only human Fc (Sino Biological Inc.) were excluded. ELISA was performed as follows.
First, the antigen diluted to 1 μg/ml with PBS was immobilized onto a 96-well ELISA plate (NUNC, Cat. #442404) for 2 hours at room temperature or overnight at 4° C. The immobilized solution was removed, and the plate was blocked with a 0.5% skim milk solution dissolved in PBS for 30 minutes at room temperature. Next, the above-described culture supernatant of hybridomas was added, and the plate was left for 1 hour at room temperature. After the plate was washed, an ALP-labeled anti-rat IgG antibody (SBA, Inc.) diluted with 0.5% skim milk to 1:2500 was added, and the plate was further left for 1 hour at room temperature. After the plate was washed, a phenyl phosphate substrate was reacted for 20 minutes at room temperature, and then absorbance at a wavelength of 492 nm was measured.
(In general: An ELISA detects its analyte on a solid surface through an enzyme-linked reagent.)
As for B1, the binding result is “binds”.

With B2, the binding result is reported as “binds”.

Consider B3, for which the binding result is “binds”.

In the case of B4, the binding result is “binds”.

The next experiment concerns the target T2, mouse ALK2(WT)-EGFP on HEK293A cells. In words: flow cytometry on transfected HEK293A cells, Alexa 647 anti-rat IgG (APC-A) against EGFP (FITC-A). As to the method:
(§1) HEK293A cells were seeded into a 100-mm dish at 3×10⁴ cells/cm², and cultured overnight in 15% FBS-containing DMEM medium under the conditions of 5% CO₂ at 37° C. On the following day, the HEK293A cells were transfected with each of pcDEF3/mouse ALK2(WT)-EGFP, pcDEF3/human ALK2(WT)-EGFP, pcDEF3/human ALK2 (R206H)-EGFP, and pcDEF3, using Lipofectamine 2000 (Invitrogen), and further cultured overnight. On the following day, 100 μL each of the cell suspensions adjusted to 1×10⁶ cells/mL was dispensed into a 1.5-mL microfuge and centrifuged at 500 g for 5 minutes, and then the supernatant was removed. To the cells, 100 μL of purified IgG diluted to 1 μg/mL was added, and the cells were left for 30 minutes at 4° C. After the cells were washed with PBS three times, 100 μL of Alexa flour 647 Goat anti-Rat IgG (H+L) (Life Technologies) diluted to 1:200 was added, and the cells were further left for 30 minutes at 4° C. After the cells were washed with PBS three times, fluorescence was detected by a flow cytometer (FACS Aria II: BD Biosciences). The data was analyzed using BD Diva Software (BD Biosciences), and the intensity of EGFP expressed by the cells and the fluorescence intensity of stained Alexa flour 647 were plotted.
(A flow cytometer gives signals particle by particle.)
For B1, the binding result is given as “binds”.

Take B2: the binding result is “binds”.

With B3, the binding result was “binds”.

With B4, the binding result is on record as “binds”.

In a further experiment the target is T3, human ALK2(WT)-EGFP on cells. The description is as above. The protocol:
as §1
In the case of B1, the binding result was “binds”.

As to B2, the binding result is “binds”.

Take B3: the binding result is listed as “binds”.

Turning to B4, the binding result is reported as “binds”.
